Assay results from patent US20110165175A1 (AFFIMED THERAPEUTICS, published 2011).
Several values for one entry are separate records, joined by “and”; a condition that tells them apart may be missing. Equal values may be shown once.

Assays:
[1] = molecular target: platelet integrin receptor GPIIb/IIIa (alpha IIb/beta 3), activated state, on ADP-activated human platelets (human) (UniProt P08514); assay: flow cytometry, inhibition of fibrinogen binding to ADP-activated platelets in whole blood
[2] = molecular target: T1, platelet integrin receptor GPIIb/IIIa (alpha IIb/beta 3), activated state, on ADP-activated human platelets (human, UniProt P08514 32-1039; P05106 27-788); assay: FACS, inhibition of fibrinogen binding to activated human platelets
T1 construct: whole, on cells; The assays were on whole platelets

[3] = molecular target: platelet integrin receptor GPIIb/IIIa (alpha IIb/beta 3), non-activated state, on non-activated human platelets (human) (UniProt P08514); assay: flow cytometry, non-activated platelets in diluted human whole blood, scFv at 2.0×10^-3 µg/mL as printed, background of secondary reagent subtracted
[4] = molecular target: platelet integrin receptor GPIIb/IIIa (alpha IIb/beta 3), activated state, on ADP-activated human platelets (human) (UniProt P08514); assay: flow cytometry, ADP-activated platelets in diluted human whole blood, scFv at 9.8×10^-3 µg/mL, background of secondary reagent subtracted
[5] = molecular target: platelet integrin receptor GPIIb/IIIa (alpha IIb/beta 3), non-activated state, on non-activated human platelets (human) (UniProt P08514); assay: flow cytometry, non-activated platelets in diluted human whole blood, scFv at 9.8×10^-3 µg/mL, background of secondary reagent subtracted
[6] = molecular target: platelet integrin receptor GPIIb/IIIa (alpha IIb/beta 3), activated state, on ADP-activated human platelets (human) (UniProt P08514); assay: flow cytometry, inhibition of fibrinogen binding to ADP-activated platelets in whole blood, 4-parameter logistic fit
[7] = molecular target: platelet integrin receptor GPIIb/IIIa (alpha IIb/beta 3), activated state, on ADP-activated human platelets (human) (UniProt P08514); assay: flow cytometry, ratio against non-activated platelets at the same scFv concentration (FIG. 23 B)
[8] = molecular target: platelet integrin receptor GPIIb/IIIa (alpha IIb/beta 3), activated state, on ADP-activated human platelets (human) (UniProt P08514); assay: flow cytometry, ADP-activated platelets in diluted human whole blood, scFv at 4.9×10^-3 µg/mL, background of secondary reagent subtracted
[9] = molecular target: platelet integrin receptor GPIIb/IIIa (alpha IIb/beta 3), activated state, on ADP-activated human platelets (human) (UniProt P08514); assay: flow cytometry, ADP-activated platelets in diluted human whole blood, scFv at 3.9×10^-2 µg/mL, background of secondary reagent subtracted
[10] = molecular target: platelet integrin receptor GPIIb/IIIa (alpha IIb/beta 3), non-activated state, on non-activated human platelets (human) (UniProt P08514); assay: flow cytometry, non-activated platelets in diluted human whole blood, scFv at 4.9×10^-3 µg/mL, background of secondary reagent subtracted
[11] = molecular target: platelet integrin receptor GPIIb/IIIa (alpha IIb/beta 3), non-activated state, on non-activated human platelets (human) (UniProt P08514); assay: flow cytometry, non-activated platelets in diluted human whole blood, scFv at 0.1 µg/mL, background of secondary reagent subtracted
[12] = molecular target: platelet integrin receptor GPIIb/IIIa (alpha IIb/beta 3), non-activated state, on non-activated human platelets (human) (UniProt P08514); assay: flow cytometry, non-activated platelets in diluted human whole blood, scFv at 3.9×10^-2 µg/mL, background of secondary reagent subtracted
[13] = molecular target: platelet integrin receptor GPIIb/IIIa (alpha IIb/beta 3), activated state, on ADP-activated human platelets (human) (UniProt P08514); assay: flow cytometry, ADP-activated platelets in diluted human whole blood, scFv at 2.0×10^-3 µg/mL as printed, background of secondary reagent subtracted
[14] = molecular target: platelet integrin receptor GPIIb/IIIa (alpha IIb/beta 3), activated state, on ADP-activated human platelets (human) (UniProt P08514); assay: flow cytometry, ADP-activated platelets in diluted human whole blood, scFv at 0.1 µg/mL, background of secondary reagent subtracted

B1: ReoPro (abciximab, Centocor/Eli Lily) (Fab, INN chains, looked up, V domains shown)
VH: EVQLQQSGTVLARPGASVKMSCEASGYTFTNYWMHWVKQRPGQGLEWIGAIYPGNSDTSYIQKFKGKAKLTAVTSTTSVYMELSSLTNEDSAVYYCTLYDGYYVFAYWGQGTLVTVSA
VL: EIVLTQSPVTLSVTPGDSVSLSCRASRDISNNLHWFQQTSHESPRLLIKYASQSMSGIPSRFSGSGSGTDFTLSINSVETEDFGMYFCQQTNSWPYTFGGGTKLEIK
modifications: Fab
Work on B1 yielded an EC50 [1] of 0.16 µg/mL.

B2: MB9 scFv (scFv)
scFv: MAEVQLVQSGAEVNKPGASVKVSCKASGYTFTGYYMHWVRQAPGQGLEWMGWINPNSGGTNYAQKFQGWVTMTRDTSISTAYMELSRLRSDDTAVYYCARGRALYNRNDRSPNWFDPWGQGTLVTVSSGSASAPTLKLEEGEFSEARVQAVLTQPPSVSVAPGQTARITCGGNNIGSKSVQWYQQKPGQAPVLVVYDDSDRPSGIPERFSGSNSGNMATLTISRVEAGDEADYYCQVWDSSSDHVVFGGGTKLTVLGQPKAAPSVTLFPPSAAAGSHHHHHH
notes: Human scFv from the natural IgM phage library, 31 kDa, detected through a His tag; also called clone MB9; MA2
For B2, the IC50 [2] was 1.1 µg/mL and 35 nM.

B3: human anti-gpIIb/IIIa single chain antibody (scFv) SCE5 (scFv, V domains shown, not shown: small tags and cut ends)
VH: QVQLQESGGGLVQPGGSLRLSCAASGFMFSRYAMSWVRQAPGKGPEWVSGISGSGGSTYYADSVKGRFTVSRDNSKNTLYLQMNSLRAEDTAVYYCARGATYTSRSDVPDQTSFDYWGQGTLVTVSS
VL: SSELTQDPAVSVALGQTVRITCQGDSLRNFYASWYQQKPGQAPTLVIYGLSKRPSGIPDRFSASSSGNTASLTITGAQAEDEADYYCLLYYGGGQQGVFGGGTKLTVL
modifications: linker and His tag
In the case of B3, the fluorescence signal value [3] is reported as 0.027, the fluorescence signal value [4] is reported as 0.612 and the fluorescence signal value [5] is reported as 0.015. For the same binder, the EC50 [6] was 0.94 µg/mL, the fluorescence on activated platelets divided by fluorescence on non-activated platelets [7] was 10 times and the fluorescence signal value [8] was 0.265. For the same binder, the fluorescence signal value [9] was 2.84, the fluorescence signal value [10] was 0.013 and the fluorescence signal value [11] was 0.16. It also gave a fluorescence signal value [12] of 0.05, a fluorescence signal value [13] of 1.33 and a fluorescence signal value [14] of 4.15. For the same binder, the concentration at which the inhibitory effect starts [1] was 0.1 to 0.2 µg/mL and the concentration of maximal inhibitory effect [1] was 10 µg/mL.
